According to patent US11612662B2, “Multi-arm polymeric prodrug conjugates of pemetrexed-based compounds” (priority 2010, dated 2023):

What was measured:
[1] = Single dose maximum tolerated dose study; type: in vivo, mice; settings: single intravenous dose; for Single dose MTD: dose equivalents
Procedure: Because of too much efficacy of daily dosing for ten days in a pilot xenograft study (likely due to the effects of repeated dosing), a single dose maximum tolerated dose study was conducted using a method similar to that provided in Example 3 in order to have a better dosing schedule for a comparative xenograft study.

xenograft = assay: In vivo xenograft study; parameters: species or system female athymic nu/nu mice; settings: as of day 26; intravenously, at 80% and at 50% of the single dose maximum tolerated dose
Procedure: Briefly, for run of the experiment, a previously untreated group of 8-12 week old mice was intravenously administered a test article prepared in saline and diluted to appropriate concentrations to allow administration volumes of a maximum of 20 mL/kg. Each compound of interest was tested twice: once at 80% of the maximum tolerated dose and once at 50% of the maximum tolerated (maximum tolerated doses calculated on the single dose maximum tolerated dose study).
Mice were observed daily for clinical signs and body weights were recorded daily (except on weekend days) then biweekly until the end of study. Dosing was terminated for any group in which mean weight loss exceeded 20% or >10% of animals died. Moribund animals were euthanized.

in vivo = settings: for maximum treatment-related body weight loss / time to recover lost body weight / Days of Deaths (s = surviving at study end) / tolerability of the dosage level / common clinical signs / necropsy findings / Max. Mean Body Weight change during Rx (%) / Day of Max. Mean Body Weight Loss (body weight nadir) / % Rx Related Deaths: low folate diet; for Days of Deaths (s = surviving at study end): five mice listed singly; for tolerability of the dosage level: tolerated if treatment-related weight loss <20%; for Max. Mean Body Weight change during Rx (%) / MTD (maximum tolerated dose): intravenously once each day for ten days; for Day of Max. Mean Body Weight Loss (body weight nadir) / % Rx Related Deaths: once each day for ten days; for MTD (maximum tolerated dose): mice fed a folate deficient diet, dose equivalents
Procedure: The purpose of this study was to determine the maximum tolerated dose for pemetrexed (PMX), Compound 20a (from Example 1), Compound 20b (from Example 1), Compound 20c (from Example 1), and Compound 20d (from Example 1) in female SCID mice fed a low folate diet. All compounds were administered intravenously, once each day, for ten consecutive days.
Calculations were made to provide “dose equivalents” between PMX, Compound 20a, Compound 20b, Compound 20c and Compound 20d, which “dose equivalents” along with the “actual dose” administered are provided in Table 2. All dosagese in this example are expressed in terms of “dose equivalents” and adjustments were made for excipients, salts and hydration state.
Female SCID mice (HsdIcr:Ha (ICR)-Prkdc-scid) were obtained from Harlan. They were seven weeks old on Day 1 of the experiment. The mice in Groups 1 and 2 were fed irradiated Rodent Diet 5053 (LabDiet™). The mice in Groups 3 through 19 were fed irradiated Folic Acid Deficient Purina TestDiet supplemented with 1% succinylsufathiazol from 14 days prior to dosing until 14 days after dosing was completed, at which time the study was terminated and the mice were then euthanized. All groups received drinking water ad libitum. Mice were housed in static cages in clean rooms that provide H.E.P.A filtered air into the environment at 100 complete air changes per hour. All treatments, body weight determinations, and tumor measurements were carried out in the environment. The environment was controlled to a temperature range of 70°±2° F. and a humidity range of 30-70%. […] Mice found in obvious distress or in a moribund condition were euthanized. The study was carried out in an AAALAC accredited facility.
Treatments began on Day 1. […] Mice in Groups 3 through 19 were fed irradiated Folic Acid Deficient Purina TestDiet with 1% Succinylsufathiazol for 14 days prior to dosing as well as throughout the entire experiment. All mice were dosed according to individual body weight on the day of treatment (0.2 ml/20 g).
Mice were weighed on each day of treatment and at least three times weekly thereafter. Individual body weights were recorded three times weekly. […] In this report, a dosage level is described as tolerated if treatment-related weight loss (during and two weeks after treatment) is <20%. Upon death or euthanasia, all mice were necropsied to provide a general assessment of potential cause of death and perhaps target organs for toxicity.

[2] = 3.75 mg/kg/inj dose equivalents

4-arm-PEG40k-γ-amide-Pemetrexed Conjugate [Compound 20d]
Single dose MTD ([1]; in mg/kg): ~40 | BWL (body weight loss) ([1]; tested dose (equiv) 40): −12.6% | day (of body weight loss) ([1]; tested dose (equiv) 40): 7 | treatment-related deaths ([1]; tested dose (equiv) 40): 0 | BWL (body weight loss) ([1]; tested dose (equiv) 60): −20.8% | day (of body weight loss) ([1]; tested dose (equiv) 60): 9 | treatment-related deaths ([1]; tested dose (equiv) 60): 0 | BWL (body weight loss) ([1]; tested dose (equiv) 90): −21.4% | day (of body weight loss) ([1]; tested dose (equiv) 90): 9 | mean day of death ([1]; tested dose (equiv) 90): 12 | treatment-related deaths ([1]; tested dose (equiv) 90): 1 | BWL (body weight loss) ([1]; tested dose (equiv) 125): −21.8% | day (of body weight loss) ([1]; tested dose (equiv) 125): 6 | mean day of death ([1]; tested dose (equiv) 125): 7 | treatment-related deaths ([1]; tested dose (equiv) 125): 5 | tumor volume compared with saline control (xenograft): significantly less tumor volume than saline control | tumor volume compared with the other articles tested (xenograft): lowest tumor volumes of all articles tested | maximum treatment-related body weight loss (in vivo; 1 mg/kg): 0.9% | time to recover lost body weight (in vivo; 1 mg/kg): 0.8 days | Days of Deaths (s = surviving at study end) (in vivo; 1 mg/kg/inj dose equivalents): s, s, s, s, s | tolerability of the dosage level (in vivo; 1 mg/kg): tolerated | maximum treatment-related body weight loss (in vivo; 3.75 mg/kg): 4.5% | time to recover lost body weight (in vivo; 3.75 mg/kg): 11.3 days | Days of Deaths (s = surviving at study end) (in vivo; [2]): s, s, s, s, s | tolerability of the dosage level (in vivo; 3.75 mg/kg): tolerated | maximum treatment-related body weight loss (in vivo; 15 mg/kg): 28.8% | time to recover lost body weight (in vivo; 15 mg/kg): not recovered prior to study termination | tolerability of the dosage level (in vivo; 15 mg/kg): toxic | common clinical signs (in vivo; dosage levels found tolerated): Rough pelage | necropsy findings (in vivo; dosage levels found tolerated): Nothing significant | common clinical signs (in vivo; dosage levels found toxic): Rough pelage | necropsy findings (in vivo; dosage levels found toxic): Nothing significant | Max. Mean Body Weight change during Rx (%) (in vivo; 1 mg/kg/inj dose equivalents): −0.9% | Max. Mean Body Weight change during Rx (%) (in vivo; [2]): −4.5% | Max. Mean Body Weight change during Rx (%) (in vivo; 15 mg/kg/inj dose equivalents): −28.8% | Day of Max. Mean Body Weight Loss (body weight nadir) (in vivo; 1 mg/kg/inj dose equivalents): 5 | Day of Max. Mean Body Weight Loss (body weight nadir) (in vivo; [2]): 5 | % Rx Related Deaths (in vivo; 15 mg/kg/inj dose equivalents): 40% | Day of Max. Mean Body Weight Loss (body weight nadir) (in vivo; 15 mg/kg/inj dose equivalents): 15 | MTD (maximum tolerated dose) (in vivo): 3.75 to 15 mg/kg

4-arm-PEG-20k-γ-isopropyl-ester-pemetrexed [Compound 28]
Single dose MTD ([1]; in mg/kg): 10 | BWL (body weight loss) ([1]; tested dose (equiv) 10): −7.3% | day (of body weight loss) ([1]; tested dose (equiv) 10): 9 | treatment-related deaths ([1]; tested dose (equiv) 10): 0 | BWL (body weight loss) ([1]; tested dose (equiv) 18): −6.6% | day (of body weight loss) ([1]; tested dose (equiv) 18): 5 | treatment-related deaths ([1]; tested dose (equiv) 18): 0 | BWL (body weight loss) ([1]; tested dose (equiv) 25): −9.1% | day (of body weight loss) ([1]; tested dose (equiv) 25): 7 | treatment-related deaths ([1]; tested dose (equiv) 25): 0 | tumor volume compared with saline control (xenograft): significantly less tumor volume than saline control

4-arm-PEG30k-γ-amide-Pemetrexed Conjugate [Compound 20c]
Single dose MTD [1]: <40 | BWL (body weight loss) ([1]; tested dose (equiv) 40): −19.6% | day (of body weight loss) ([1]; tested dose (equiv) 40): 9 | mean day of death ([1]; tested dose (equiv) 40): 12 | treatment-related deaths ([1]; tested dose (equiv) 40): 5 | BWL (body weight loss) ([1]; tested dose (equiv) 70): −25.0% | day (of body weight loss) ([1]; tested dose (equiv) 70): 9 | mean day of death ([1]; tested dose (equiv) 70): 10.5 | treatment-related deaths ([1]; tested dose (equiv) 70): 2 | BWL (body weight loss) ([1]; tested dose (equiv) 95): −27.1% | day (of body weight loss) ([1]; tested dose (equiv) 95): 7 | mean day of death ([1]; tested dose (equiv) 95): 9 | treatment-related deaths ([1]; tested dose (equiv) 95): 3 | BWL (body weight loss) ([1]; tested dose (equiv) 125): −25.3% | day (of body weight loss) ([1]; tested dose (equiv) 125): 9 | mean day of death ([1]; tested dose (equiv) 125): 10.5 | treatment-related deaths ([1]; tested dose (equiv) 125): 2 | tumor volume compared with saline control (xenograft): significantly less tumor volume than saline control | tumor volume compared with the other articles tested (xenograft): lowest tumor volumes of all articles tested | maximum treatment-related body weight loss (in vivo; 1 mg/kg): 4.8% | time to recover lost body weight (in vivo; 1 mg/kg): 5.5 days | Days of Deaths (s = surviving at study end) (in vivo; 1 mg/kg/inj dose equivalents): s, s, s, s, s | tolerability of the dosage level (in vivo; 1 mg/kg): tolerated | maximum treatment-related body weight loss (in vivo; 3.75 mg/kg): 1.4% | time to recover lost body weight (in vivo; 3.75 mg/kg): 2.2 days | Days of Deaths (s = surviving at study end) (in vivo; [2]): s, s, s, s, s | tolerability of the dosage level (in vivo; 3.75 mg/kg): tolerated | maximum treatment-related body weight loss (in vivo; 15 mg/kg): 18.8% | time to recover lost body weight (in vivo; 15 mg/kg): not recovered prior to study termination | tolerability of the dosage level (in vivo; 15 mg/kg): toxic | common clinical signs (in vivo; dosage levels found tolerated): Rough pelage | necropsy findings (in vivo; dosage levels found tolerated): no significant findings | necropsy findings (in vivo; dosage levels found toxic): Necrotic intestines | Max. Mean Body Weight change during Rx (%) (in vivo; 1 mg/kg/inj dose equivalents): −4.8% | Max. Mean Body Weight change during Rx (%) (in vivo; [2]): −1.4% | Max. Mean Body Weight change during Rx (%) (in vivo; 15 mg/kg/inj dose equivalents): −22.0% | % Rx Related Deaths (in vivo; 1 mg/kg/inj dose equivalents): 0% | Day of Max. Mean Body Weight Loss (body weight nadir) (in vivo; 1 mg/kg/inj dose equivalents): 10 | % Rx Related Deaths (in vivo; [2]): 0% | Day of Max. Mean Body Weight Loss (body weight nadir) (in vivo; [2]): 5 | % Rx Related Deaths (in vivo; 15 mg/kg/inj dose equivalents): 20% | Day of Max. Mean Body Weight Loss (body weight nadir) (in vivo; 15 mg/kg/inj dose equivalents, 15 mg/kg): 19

4-arm-PEG-40k-γ-Ethyl-Ester-pemetrexed [Compound 24c]
Single dose MTD ([1]; in mg/kg): 10 | BWL (body weight loss) ([1]; tested dose (equiv) 5): −0.5% | day (of body weight loss) ([1]; tested dose (equiv) 5): 5 | treatment-related deaths ([1]; tested dose (equiv) 5): 0 | BWL (body weight loss) ([1]; tested dose (equiv) 10): −7.6% | day (of body weight loss) ([1]; tested dose (equiv) 10): 5 | treatment-related deaths ([1]; tested dose (equiv) 10): 0 | BWL (body weight loss) ([1]; tested dose (equiv) 15): −15.7% | day (of body weight loss) ([1]; tested dose (equiv) 15): 7 | treatment-related deaths ([1]; tested dose (equiv) 15): 0 | tumor volume compared with saline control (xenograft): significantly less tumor volume than saline control

4-arm-PEG-20k-γ-Ethyl-Ester-pemetrexed [Compound 24b]
Single dose MTD ([1]; in mg/kg): 12 | treatment-related deaths ([1]; tested dose (equiv) 8): 0 | BWL (body weight loss) ([1]; tested dose (equiv) 12): −8.9% | day (of body weight loss) ([1]; tested dose (equiv) 12): 5 | treatment-related deaths ([1]; tested dose (equiv) 12): 0 | BWL (body weight loss) ([1]; tested dose (equiv) 20): −10.4% | day (of body weight loss) ([1]; tested dose (equiv) 20): 5 | treatment-related deaths ([1]; tested dose (equiv) 20): 0 | tumor volume compared with saline control (xenograft): significantly less tumor volume than saline control

4-arm-PEG10k-γ-amide-Pemetrexed Conjugate [Compound 20a]
maximum treatment-related body weight loss (in vivo; 1 mg/kg): approximately 3.0% | tolerability of the dosage level (in vivo; 1 mg/kg): tolerated | maximum treatment-related body weight loss (in vivo; 3.75 mg/kg): approximately 3.0% | Days of Deaths (s = surviving at study end) (in vivo; [2]): s, s, s, s, s | tolerability of the dosage level (in vivo; 3.75 mg/kg): tolerated | maximum treatment-related body weight loss (in vivo; 15 mg/kg): 14.9% | time to recover lost body weight (in vivo; 15 mg/kg): approximately 10 days | tolerability of the dosage level (in vivo; 15 mg/kg): toxic | common clinical signs (in vivo; dosage levels found tolerated): Rough pelage | necropsy findings (in vivo; dosage levels found tolerated): bloated intestines and air filled stomachs | Max. Mean Body Weight change during Rx (%) (in vivo; 1 mg/kg/inj dose equivalents): −3.4% | Max. Mean Body Weight change during Rx (%) (in vivo; [2]): −3.0% | Max. Mean Body Weight change during Rx (%) (in vivo; 15 mg/kg/inj dose equivalents): −14.9% | % Rx Related Deaths (in vivo; 1 mg/kg/inj dose equivalents): 20% | Day of Max. Mean Body Weight Loss (body weight nadir) (in vivo; 1 mg/kg/inj dose equivalents): 5 | % Rx Related Deaths (in vivo; [2]): 0% | Day of Max. Mean Body Weight Loss (body weight nadir) (in vivo; [2]): 8 | % Rx Related Deaths (in vivo; 15 mg/kg/inj dose equivalents): 40% | Day of Max. Mean Body Weight Loss (body weight nadir) (in vivo; 15 mg/kg/inj dose equivalents): 8 | MTD (maximum tolerated dose) (in vivo): 3.75 to 15 mg/kg
